How the values were obtained:
Test in all cases: cell-based or functional assay
[1] = molecular target: Hemagglutinin of A/Hong Kong/8/68 (H3N2) (Influenza A virus A/Hong Kong/8/68 …)
[2] = molecular target: A/PR/8/34 (H1N1) hemagglutinin (HA), wild type (Influenza A virus A/PR/8/34 (H1N1), UniProt P03452 18-565)
[3] = molecular target: Hemagglutinin of A/Port Chalmers/1/73 (H3N2) (Influenza A virus A/Port Chalmers/1/73 …)
[4] = molecular target: Hemagglutinin of A/Mal/302/54 (H1N1) (Influenza A virus A/Mal/302/54 (H1N1))
[5] = molecular target: Hemagglutinin of A/Wisconsin/67/2005 (H3N2) (Influenza A virus A/Wisconsin/67/2005 …)
[6] = molecular target: Hemagglutinin of A/WS/33 (H1N1) (Influenza A virus A/WS/33 (H1N1), UniProt P03454 18-565)
[7] = molecular target: Hemagglutinin of A/Milan/UHSR1/2009 (H1N1) (Influenza A virus A/Milan/UHSR1/2009 …)
[8] = molecular target: Hemagglutinin of A/NC/20/99 (H1N1) (Influenza A virus A/NC/20/99 (H1N1))
[9] = molecular target: H3N2 HA (A/Aichi/2/68), wild type (Influenza A virus A/Aichi/2/68 (H3N2), UniProt Q91MA7 17-566)
[10] = molecular target: Hemagglutinin of A/Swine/Parma/1/97 (H1N1) (Influenza A virus A/Swine/Parma/1/97 …)
[11] = molecular target: Hemagglutinin of A/Victoria/3/75 (H3N2) (Influenza A virus A/Victoria/3/75 (H3N2), UniProt P03435 17-567)

B1: Fab PN-SIA28 (Fab, V domains shown)
VH: LEESGGGVVQPGRSLRLSCAASGFPFSSYGMHWVRQAPGKGLEWVAGVSYDGSYKYYADSVKGRFTISRDSSKSTLYLQMNSLRPEDTAVYYCARPSAIFGIYIILNGLDVWGQGTTVTVSS
VL: ELTQSPSSVSASVGDRVTITCRATQGISSWLAWYQQKPGKPPKLLIFGASSLQSGVPSRFSGSGSGTDFTLTISSLQPEDFATYFCQQAHSFPLTFGGGTKVEIK
B1 was tested, and the “IC50, micro-neutralization assay on MDCK cells” value (shortened to “IC50, micro-neutralization assay”) [1] was 20 µg/mL, the “IC50, micro-neutralization assay” value [2] was 2 µg/mL and the “IC50, micro-neutralization assay” value [3] was 13.2 µg/mL. The “IC50, micro-neutralization assay” value [4] was 0.8 µg/mL, the “IC50, micro-neutralization assay” value [5] was > 20 µg/mL and the “IC50, micro-neutralization assay” value [6] was 2.9 µg/mL. The “IC50, micro-neutralization assay” value [7] was 0.3 µg/mL, the “IC50, micro-neutralization assay” value [8] was 7 µg/mL and the “IC50, micro-neutralization assay” value [9] was 20 µg/mL. For the same binder, the “IC50, micro-neutralization assay” value [10] was 3.9 µg/mL and the “IC50, micro-neutralization assay” value [11] was > 20 µg/mL.

B2: IgG PN-SIA28 (antibody, V domains shown)
VH: LEESGGGVVQPGRSLRLSCAASGFPFSSYGMHWVRQAPGKGLEWVAGVSYDGSYKYYADSVKGRFTISRDSSKSTLYLQMNSLRPEDTAVYYCARPSAIFGIYIILNGLDVWGQGTTVTVSS
VL: ELTQSPSSVSASVGDRVTITCRATQGISSWLAWYQQKPGKPPKLLIFGASSLQSGVPSRFSGSGSGTDFTLTISSLQPEDFATYFCQQAHSFPLTFGGGTKVEIK
In the case of B2, the “IC50, micro-neutralization assay” value [1] is reported as 0.8 µg/mL, the “IC50, micro-neutralization assay” value [2] is reported as 1.2 µg/mL and the “IC50, micro-neutralization assay” value [3] is reported as 1.8 µg/mL. The “IC50, micro-neutralization assay” value [4] was 0.64 µg/mL, the “IC50, micro-neutralization assay” value [6] was 1.3 µg/mL and the “IC50, micro-neutralization assay” value [7] was 0.2 µg/mL. For the same binder, the “IC50, micro-neutralization assay” value [9] was 0.6 µg/mL, the “IC50, micro-neutralization assay” value [10] was 2 µg/mL and the “IC50, micro-neutralization assay” value [11] was 1.2 µg/mL.

— US20130022608A1 (POMONA RICERCA S R L, published 2013)
